B1: Histone-binding protein RBBP7 (Homo sapiens), Q16576 (parent)
chain: MASKEMFEDTVEERVINEEYKIWKKNTPFLYDLVMTHALQWPSLTVQWLPEVTKPEGKDYALHWLVLGTHTSDEQNHLVVARVHIPNDDAQFDASHCDSDKGEFGGFGSVTGKIECEIKINHEGEVNRARYMPQNPHIIATKTPSSDVLVFDYTKHPAKPDPSGECNPDLRLRGHQKEGYGLSWNSNLSGHLLSASDDHTVCLWDINAGPKEGKIVDAKAIFTGHSAVVEDVAWHLLHESLFGSVADDQKLMIWDTRSNTTSKPSHLVDAHTAEVNCLSFNPYSEFILATGSADKTVALWDLRNLKLKLHTFESHKDEIFQVHWSPHNETILASSGTDRRLNVWDLSKIGEEQSAEDAEDGPPELLFIHGGHTAKISDFSWNPNEPWVICSVSEDNIMQIWQMAENIYNDEESDVTTSELEGQGS

Variants of: B1
Conditions: with h4_human H4C16, P62805

Variant	effect of a mutation on the interaction
L30Y	disrupting interaction
L30Y;E356Q;D357N;E359Q;D360N	disrupting interaction
E356Q;D357N;E359Q;D360N	disrupting interaction

Source: IntAct's records for PubMed 18571423
